Values quoted from earlier work in US7449311B2, “Method of producing macedocin by culturing Streptococcus macedonicus” (Vrije Universiteit Brussel, priority 2001, dated 2008).
Where two headings read alike, the source gives them in different places.

Substance: SA-FF22: lantibiotic isolated from pathogenic Streptococcus pyogenes FF22 (SEQ ID NO 2) (GKNGVFKTISHECHLNTWAFLATCCS; Streptococcus pyogenes)
- loss of activity (at a pH of 7 (Tagg et al., 1978)): 50%
- loss of activity (stored for 4 weeks at room temperature (Tagg et al., 1973)): 75%
